{"source": "patent US20220348932A1", "target": "NADH-dependent methanol dehydrogenase (MeDH) from Bacillus methanolicus MGA3, internal laboratory designation 2315 (tested as purified 2315A) (Bacillus methanolicus MGA3)", "assay": "cell-based or functional assay"}
{"substance": "activator protein (ACT) from Bacillus methanolicus MGA3, internal laboratory designation 2317 (tested as purified 2317A) (enzyme)", "values": [{"measurement": "ratio of ACT to MeDH in an in vitro methanol dehydrogenase activation test (5 M methanol, 2 mM NAD, 10 µM MeDH 2315A, pH 7.4) (ACT:MeDH ratio)", "value": 10}]}
